Source: patent US20240376171A1 (Hoffmann-La Roche, published 2024)

What was measured:
[1] = target: T1, PD1 on activated human CD4 and CD8 T cells (human, UniProt Q15116 25-288); assay: flow cytometry, CD3/CD28-activated human PBMCs gated on CD3+CD4+ T cells, PE anti-human Fc secondary antibody; TA constructs pre-incubated with Matriptase, unmasked controls not
T1 construct: whole, on cells; Endogenous PD1 on CD3/CD28-stimulated T cells; also called human PD1; PD1 receptor
Experimental: (§1) Three formats of TA PD1-IL2v molecules and respective controls were assessed for their capacity to bind to activated PD1 positive CD8 T cells and CD4 T cells within PBMCs in comparison to the respective unmasked molecules.
(§2) PBMCs were purchased from Biomex from a healthy donor (Lot 5000729PB). The PBMCs were stimulated for three days with CD3 and CD28 to induce upregulation of PD1 on T cells. Therefore, PBMCs were seeded in medium (RPMI1640, 10% FCS, 2 mM Glutamine) into cell culture flasks that were coated for 1 hour at 37° C. with 1 μg/ml CD3 (clone OKT3, 302914, BioLegend). CD28 was added in solution to the PBMCs at a concentration of 1 μg/ml (clone CD28.2, 302914, BioLegend). After three days, PBMCs were harvested and transferred into a 96 well round bottom plate (200′000 cells per well). The cells were washed with FACS buffer (PBS, 2% FBS, 5 mM EDTA, 0.025% NaN3) and stained with 30 μl of corresponding TA PD1-IL2v constructs in FACS buffer for 30 min at 4° C. Prior to the staining, 20 μg of the TA PD1-IL2v constructs were digested with 4 μl Matriptase (Enzo ˜2.5 U/μl, ALX-201-246-U25, Lot 12152015, or without Matriptase for the unmasked controls) for 2 hours at 37° C. in 40 μl Matriptase buffer (50 mM Tris, 50 mM NaCl, 0.01% Tween 20, pH 9.0). After the staining, the cells were washed twice with FACS buffer to remove unbound molecules. Then 30 μl of the diluted PE anti-human Fc specific secondary antibody (1:50 dilution, 109-116-170, Jackson ImmunoResearch) was added to the cells. After 30 min incubation at 4° C. the cells were washed twice with FACS buffer. To detect T cells, PBMCs were stained with 30 μl of a mixture of CD3 PE/Cyanine7 (clone UCHT1, 300420, BioLegend), CD4 FITC (clone RPA-T4, 300528, BioLegend) and CD8 APC/Cyanine7 (clone HIT8a, 300926, BioLegend) for 30 min at 4° C. The unbound antibodies were removed by washing twice with FACS buffer. Finally the cells resuspended in 150 μl FACS buffer and measured using a BD Fortessa gating on CD3+CD4+ cells (CD4 T cells) and CD3+CD8+ cells (CD8 T cells).

[2] = target: T1, PD1 on activated human CD4 and CD8 T …; assay: flow cytometry, CD3/CD28-activated human PBMCs gated on CD3+CD8+ T cells, PE anti-human Fc secondary antibody; TA constructs pre-incubated with Matriptase, unmasked controls not
Experimental: as §1, §2

[3] = target: T1, PD1 on activated human CD4 and CD8 T …; assay: flow cytometry on CD3/CD28-activated T cells (CD4 and CD8) within human PBMCs; construct digested with matriptase; PE anti-human Fc secondary
Experimental: as §2, with “Then 30 μl of the diluted PE anti-human Fc specific secondary antibody (1:50 dilution, 109-116-170, Jackson ImmunoResearch) was added to the cells. After 30 min incubation at 4° C. the cells were washed twice with FACS buffer. To detect T cells, PBMCs were stained with 30 μl of a mixture of CD3 PE/Cyanine7 (clone UCHT1, 300420, BioLegend), CD4 FITC (clone RPA-T4, 300528, BioLegend) and CD8 APC/Cyanine7 (clone HIT8a, 300926, BioLegend) for 30 min at 4° C. The unbound antibodies were removed by washing twice with FACS buffer.” left out

[4] = target: T1, PD1 on activated human CD4 and CD8 T …; assay: flow cytometry on CD3/CD28-activated T cells (CD4 and CD8) within human PBMCs; no matriptase; PE anti-human Fc secondary
Experimental: as §2, with “Then 30 μl of the diluted PE anti-human Fc specific secondary antibody (1:50 dilution, 109-116-170, Jackson ImmunoResearch) was added to the cells. After 30 min incubation at 4° C. the cells were washed twice with FACS buffer. To detect T cells, PBMCs were stained with 30 μl of a mixture of CD3 PE/Cyanine7 (clone UCHT1, 300420, BioLegend), CD4 FITC (clone RPA-T4, 300528, BioLegend) and CD8 APC/Cyanine7 (clone HIT8a, 300926, BioLegend) for 30 min at 4° C. The unbound antibodies were removed by washing twice with FACS buffer.” left out

T1 sequence (Q15116 25-288): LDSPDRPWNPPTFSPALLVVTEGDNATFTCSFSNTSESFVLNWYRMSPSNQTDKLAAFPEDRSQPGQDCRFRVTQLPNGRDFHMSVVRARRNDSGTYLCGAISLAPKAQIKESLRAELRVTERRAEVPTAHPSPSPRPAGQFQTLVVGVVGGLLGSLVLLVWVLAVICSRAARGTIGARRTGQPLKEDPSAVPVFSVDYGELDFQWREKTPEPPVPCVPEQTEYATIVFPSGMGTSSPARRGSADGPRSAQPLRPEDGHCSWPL

Row | EC50 (read off the curve) [1] | EC50 (read off the curve) [2] | fold binding capacity versus the "in line" and knob/hole formats [3] | fold binding capacity versus the "in line" and knob/hole formats [4] | Binder
1 | ~2 nM | ~3 nM | ~2 fold |  | human TA PD1-IL2v, MT204, 2xPQARK, N-term (antibody, One-armed human PD1-targeted human IgG PG LALA (knobs-into-holes); MT204 scFv-masked IL2v is fused N-terminally to the hinge of the Fc knob chain, with two PQARK sites; also called P1AG9597; P1AG9597-007) light: DIVMTQSPDSLAVSLGERATINCKASESVDTSDNSFIHWYQQKPGQSPKLLIYRSSTLESGVPDRFSGSGSGTDFTLTISSLQAEDVAVYYCQQNYDVPWTFGQGTKVEIKRTVAAPSVFIFPPSDEQLKSGTASVVCLLNNFYPREAKVQWKVDNALQSGNSQESVTEQDSKDSTYSLSSTLTLSKADYEKHKVYACEVTHQGLSSPVTKSFNRGEC heavy: EVQLLESGGGLVQPGGSLRLSCAASGFSFSSYTMSWVRQAPGKGLEWVATISGGGRDIYYPDSVKGRFTISRDNSKNTLYLQMNSLRAEDTAVYYCVLLTGRVYFALDSWGQGTLVTVSSASTKGPSVFPLAPSSKSTSGGTAALGCLVKDYFPEPVTVSWNSGALTSGVHTFPAVLQSSGLYSLSSVVTVPSSSLGTQTYICNVNHKPSNTKVDKKVEPKSCDKTHTCPPCPAPEAAGGPSVFLFPPKPKDTLMISRTPEVTCVVVDVSHEDPEVKFNWYVDGVEVHNAKTKPREEQYNSTYRVVSVLTVLHQDWLNGKEYKCKVSNKALGAPIEKTISKAKGQPREPQVCTLPPSRDELTKNQVSLSCAVKGFYPSDIAVEWESNGQPENNYKTTPPVLDSDGSFFLVSKLTVDKSRWQQGNVFSCSVMHEALHNHYTQKSLSLSPG not shown
2 | ~1 nM | ~2 nM |  | ~2 fold | human PD1-IL2v, unmasked, N-term (antibody, human IgG1, kappa, L234A L235A, One-armed human PD1-targeted human IgG PG LALA with IL2v fused N-terminally to the hinge of the Fc knob chain (non-masked control); also called P1AG3071; P1AG3071-004) light: DIVMTQSPDSLAVSLGERATINCKASESVDTSDNSFIHWYQQKPGQSPKLLIYRSSTLESGVPDRFSGSGSGTDFTLTISSLQAEDVAVYYCQQNYDVPWTFGQGTKVEIKRTVAAPSVFIFPPSDEQLKSGTASVVCLLNNFYPREAKVQWKVDNALQSGNSQESVTEQDSKDSTYSLSSTLTLSKADYEKHKVYACEVTHQGLSSPVTKSFNRGEC heavy: EVQLLESGGGLVQPGGSLRLSCAASGFSFSSYTMSWVRQAPGKGLEWVATISGGGRDIYYPDSVKGRFTISRDNSKNTLYLQMNSLRAEDTAVYYCVLLTGRVYFALDSWGQGTLVTVSSASTKGPSVFPLAPSSKSTSGGTAALGCLVKDYFPEPVTVSWNSGALTSGVHTFPAVLQSSGLYSLSSVVTVPSSSLGTQTYICNVNHKPSNTKVDKKVEPKSCDKTHTCPPCPAPEAAGGPSVFLFPPKPKDTLMISRTPEVTCVVVDVSHEDPEVKFNWYVDGVEVHNAKTKPREEQYNSTYRVVSVLTVLHQDWLNGKEYKCKVSNKALGAPIEKTISKAKGQPREPQVCTLPPSRDELTKNQVSLSCAVKGFYPSDIAVEWESNGQPENNYKTTPPVLDSDGSFFLVSKLTVDKSRWQQGNVFSCSVMHEALHNHYTQKSLSLSPGK not shown
